Laboratory results published in patent publication US20180224449A1 (GOVERNMENT OF THE UNITED STATES AS REPRESENTED BY THE …, published 2018).
Ends that are not written are not given here. * marks the point of attachment. Biotin = O=C1N[C@H]2[C@H](CS[C@H]2CCCCC(=O)*)N1

T1: biotinylated OprF1 synthetic peptide (P. aeruginosa)
T1 construct: also called OprF1-B; OprF1-Biotin
T1 peptide: Biotin-GTYETGNKKVH


Columns and labels:
[1] = target: T2, OprF outer membrane protein on P. stutzeri cells (P. stutzeri); assay: fluorometry of cells recovered from spiked 1 L Jet A fuel and labeled with 1.5 uM peptide-QD545, at the LOD of 5 x 10^5 CFU
T2 construct: whole, on cells; whole bacterial cells were labeled

[2] = target: T3, OprF outer membrane protein on A. venetianus cells (A. venetianus); assay: as above
T3 construct: whole, on cells; Whole bacterial cells were labeled

[3] = target: T1, biotinylated OprF1 synthetic peptide; assay: pooled monoclonal phages pulled down on biotinylated OprF1 in Bushnell-Haas with 1% Jet-A; unamplified eluate, share of 30 sequenced clones

Binder | FLUORESCENCE (RFU) [1] [RFU] | FLUORESCENCE (RFU) [2] [RFU] | % Abundance [3] [%]
PKRTPRH (also: conjugated to quantum dot, The summary and claims describe a C-terminal three-glycine plus cysteine linker to an amine-functionalized quantum dot; also called QD545-OBP12; OBP12-QD545) [OBP12 peptide-quantum dot conjugate] | 12200 | 580 | –
PIKTNRK (also: conjugated to quantum dot, The summary and claims describe a C-terminal three-glycine plus cysteine linker to an amine-functionalized quantum dot; also called QD545-OBP11; OBP11-QD545) [OBP11 peptide-quantum dot conjugate] | 255 | 292 | –
RRSNSQL (also called OprF-specific bacteriophage; not shown: P3 coat protein of M13 bacteriophage (Ph.D.-7 library)) [monoclonal M13 phage displaying OBP4 (RRSNSQL)] | – | – | 33
QITLRST (also called OprF-specific bacteriophage; not shown: P3 coat protein of M13 bacteriophage (Ph.D.-7 library)) [monoclonal M13 phage displaying OBP7 (QITLRST)] | – | – | 10
QMLLRLP (also called OprF-specific bacteriophage; not shown: P3 coat protein of M13 bacteriophage (Ph.D.-7 library)) [monoclonal M13 phage displaying OBP9 (QMLLRLP)] | – | – | 3
PIKTNRK (also called OprF-specific bacteriophage; not shown: P3 coat protein of M13 bacteriophage (Ph.D.-7 library)) [monoclonal M13 phage displaying OBP11 (PIKTNRK)] | – | – | 10
PKRTPRH (also called OprF-specific bacteriophage; not shown: P3 coat protein of M13 bacteriophage (Ph.D.-7 library)) [monoclonal M13 phage displaying OBP12 (PKRTPRH)] | – | – | 3
NMTNPPP (also called OprF-specific bacteriophage; not shown: P3 coat protein of M13 bacteriophage (Ph.D.-7 library)) [monoclonal M13 phage displaying OBP6 (NMTNPPP)] | – | – | 10
